Laboratory results: the supplement of paper PMC10126150
± gives the standard deviation of the averaged measurements.

tested on: ATP; assay: switch fluorescence ratio, 500 uM ATP over buffer (Cy3 cluster intensity, sum of 5 cycles each) (fold (ratio)); higher = stronger signal-on switching upon ATP binding; sequences stand for … in TCGTCGGCAGCGTCAGATGTGTATAAGAGACAGTTTTTTTTTTTTTTTTTTTTTTTTT…TC; settings: aptamer strand: ATP DNA aptamer (quencher-CACCTGGGGGAGTATTGCGGAGGAAGG + anchor), 100 nM annealed; ATP concentration: 500 uM
Method in brief: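 Clusters carrying Cy3-labelled switching strands on a modified Illumina MiSeq flow-cell were annealed to 100 nM quencher-labelled ATP aptamer and imaged in selection buffer. They were imaged again after 15 min with 500 uM ATP at 22 °C, over five buffer/ATP cycles with NaOH stripping and re-annealing in between. For each cluster, the fluorescence ratio is the summed Cy3 intensity of the target cycles divided by that of the buffer cycles, averaged per switch-domain sequence. Clusters outside 100-1000 RFU were left out.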
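Further: ATP exposure 15 min at 22 °C before imaging.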

Sequence	switch fluorescence ratio
ACCCATGAAG	0.989 ± 0.015
CAAAGGACCT	1.136 ± 0.0082
TAAGCTGCGT	0.989 ± 0.03
GGCGATTTTT	1.013 ± 0.0022
CGCCAGGGGA	1.43 ± 0.59
AGGTGTATTC	0.9962 ± 0.0058
GAGGGCTACT	1.04 ± 0.041
AGTTTGTCCC	1.02 ± 0.0057
TCCTTTTTTG	1 ± 0.016
TCTCAGTGTT	1.028 ± 0.0064
GGTTTGGACG	0.981 ± 0.037
GCGTTTTTGG	0.998 ± 0.029
TGGGGGTGAA	1.02 ± 0.018
CAGTTTTAGT	1.01 ± 0.032
TGTGAAGGCG	1.71 ± 1
TCAATGGGGA	0.998 ± 0.013
TCGTTAAATT	0.988 ± 0.035
TGCAGCTTGC	1.25 ± 0.24
TTATCTGCCT	1.06 ± 0.072
GACTTTACTG	1.06 ± 0.049
GGCGCGCATT	1.02 ± 0.018
AAGCTTGAAG	1.01 ± 0.013

Sequence	switch fluorescence ratio
TATTAAGAGG	0.98 ± 0.018
CGCTCTAATA	1.058 ± 0.01
GAGGATGATC	1.01 ± 0.032
CGGGTCTTAG	1.01 ± 0.011
GGTATTCGAG	1.02 ± 0.0013
AACCACTTTA	1.06 ± 0.021
ACTCAGCTGG	1.074 ± 0.0069
GGGTGAGCGA	1.05 ± 0.064
CTGTCAACGG	1.02 ± 0.017
GTTTATGAGC	1 ± 0.022
CACCACGGCA	1.1 ± 0.045
AGTATGGTGT	0.937 ± 0.044
ATCGATACTT	1.067 ± 0.0098
TTTACAGCAT	1.06 ± 0.14
GGGGTGATAG	1 ± 0.042
ACAGACTTTG	1.01 ± 0.062
CCTATGTGCT	1.038 ± 0.0059
TATCATTTAA	1.005 ± 0.009
TTTGTTTGAG	0.991 ± 0.037
CTATTTTAAG	1.02 ± 0.051
CCGTGGAAAC	1.14 ± 0.026
GGGGTATGGG	0.985 ± 0.038

Sequence	switch fluorescence ratio
ATAGGAACTT	1.02 ± 0.013
TGTTGGGCCC	1 ± 0.018
GTGTTGGGGC	0.985 ± 0.038
CGGACCAAGG	1 ± 0.077
TCCGATGAGG	1.05 ± 0.074
TAGCTTCTGC	0.907 ± 0.063
TAAGAGGGGT	1.03 ± 0.07
ATTTTGTCAT	0.972 ± 0.019
CCCGGAGTGT	1.732 ± 0.0079
GGGTCGGACG	1.028 ± 0.0088
TATTCCGTCC	1.1 ± 0.049
TTTATGATGG	1.01 ± 0.052
TAAAAAGTAG	0.992 ± 0.024
AATGGAAGGG	1.01 ± 0.013
TCTATTATTG	0.98 ± 0.011
GAGGTATTTT	1.34 ± 0.65
GTTTAATCCG	0.975 ± 0.013
GGGGGGTCCC	0.9957 ± 0.0037
TGGGTCCTTG	0.9894 ± 0.0014
CAAAGGACGG	1.25 ± 0.38
CGGATTAGGG	1 ± 0.022
TCGCTGAGG	0.9921 ± 0.00077

Sequence	switch fluorescence ratio
GGGGCTAAGC	1 ± 0.026
GATCGGTGCT	1 ± 0.015
GCGAGTGTGA	1 ± 0.036
AAAAATGTTA	1.01 ± 0.018
GCCGGGGCGC	1 ± 0.012
CCTCTGGGGG	1.32 ± 0.19
CGTAGTGAAG	1.03 ± 0.037
GGGTATAGGC	0.981 ± 0.046
TAGGTGAGGG	1.11 ± 0.16
GACCAAAGGG	1.03 ± 0.058
TAGAGGGTTT	1.02 ± 0.045
CGGGATTTAG	1 ± 0.014
TATTTTTTCT	0.994 ± 0.045
CGGCGGGTTT	1.02 ± 0.049
TTGATACAGG	1.29 ± 0.37
TGCACGATTG	1.03 ± 0.03
GTTTAGGAGG	0.989 ± 0.022
GAGGAAGGAC	1.04 ± 0.014
GAATGATGGG	0.987 ± 0.024
